Molecular target: Kv4.2-T1 domain (tetramerization domain of Kv4.2) with a poly-His tag at the NH2 terminus
Test: SEC

Chain of Kv4.2-T1 domain (tetramerization domain of Kv4.2) with a poly-His tag at the NH2 terminus (Q63881 whole entry, the tested form may be a part): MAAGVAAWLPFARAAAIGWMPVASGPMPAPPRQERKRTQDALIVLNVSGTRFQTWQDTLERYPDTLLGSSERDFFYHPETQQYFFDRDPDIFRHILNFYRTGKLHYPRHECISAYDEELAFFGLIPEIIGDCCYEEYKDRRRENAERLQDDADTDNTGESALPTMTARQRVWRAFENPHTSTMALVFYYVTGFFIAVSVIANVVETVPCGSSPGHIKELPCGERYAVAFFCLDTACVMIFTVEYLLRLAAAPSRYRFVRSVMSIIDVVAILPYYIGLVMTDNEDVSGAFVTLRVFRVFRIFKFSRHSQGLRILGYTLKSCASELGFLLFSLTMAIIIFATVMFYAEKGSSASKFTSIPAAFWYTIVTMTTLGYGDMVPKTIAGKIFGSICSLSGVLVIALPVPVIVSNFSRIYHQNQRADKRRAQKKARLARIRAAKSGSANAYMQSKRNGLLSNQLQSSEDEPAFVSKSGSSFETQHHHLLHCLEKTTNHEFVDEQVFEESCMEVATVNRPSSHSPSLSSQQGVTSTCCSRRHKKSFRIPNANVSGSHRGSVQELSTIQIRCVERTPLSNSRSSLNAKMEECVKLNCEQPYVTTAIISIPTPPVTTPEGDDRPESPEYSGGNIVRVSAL

Substance: Kv4.2-T1 domain (tetramerization domain of Kv4.2) with a poly-His tag at the NH2 terminus (domain or fragment)
- stoichiometry N: 4
